14 sequences from the DeepSol protein solubility set can be followed below.

The data set in a line: soluble on expression in E. coli; label from the status in PepcDB or PDB records.
In the case of “MSNASSTSSGRSSRAEVLWADVLSHIPFVKRFTTPDSRKEQKVRILSKNEVDEEDGVQLEQLIQNQEVILCHSSSMNFHQQCRGSVVDFEYIEKKVKVTVSSESDFPIWEDTDIWMQALSTPTSSLYAIDANTSVNSELIEDESVVQEQKEQISERAPLRLSDDIEEFGDVLVDVIKKKTDTKNNVFTITLGLTGFARFHAEIQLSKESTYYLNFDDGYEDDLASLASEEDILSGYQTIQNVDELCDKIGELTVTDVCIKTWFDILHNYAYIRLIVTSAKRKLQHFKLLTGHHVIIQSATSDRDTVLAVVSRVMKDGIVLTLQGVKKQTKNFVFSKNELFTIQIDHNYEDRLQKLTGKEEEHENLRRELINSDSDIRLHRSWKSNGKQYATFTSKNDAFKKIPFNTKFLLGKCWEAEGVLEKKADFIFAIRVADKNFSTPSTMTFEIKFTRNLVRNSKDFELSKAFYYVDFDLAHFVESDHCYSLLNAKSVNGKPDETVVKSCPIDEDLVFSVFPFQCGRRAEERRRGYQESQREVQSSTKKPDVKVEKNVKLEAPEKQNKRKDTALNPKEKYCAQKLEKQLNDQTKTPKQKPKQETSAGIKRESTQRPCVIPRTFETSNSKDASNKVPLQSVSEPKILLQDTNSRCAQPRKAVSHEGLKSHQQENVLKHLDNKHKFLCFVNIAKRIENDNGNPLVELSIGFDENGGKVQQSPWPLGIRMLLTDGLEKTEVKIQGDVQDTNGETVTFMIQQQLSDLDFLNSYKPKKLLACFREHGHNLK”, the “soluble on expression in E. coli” value is “not soluble”.

Regarding “MSNEKFNNVPKPAGNGPHTPEDHAIKGELTFEDKVVQKIIGLALENVDGLLTVDGGFFSNIAEKLVNTDNVTAGIDTEVGKKQVAVDMDIVVEYGKDIQDIYEKMKELISREVKKMTHLDVIEVNVNVVDIKSKEEYEEDSETVQDKVTGAAKSTGEFASEQTEKAKKAVNKGTEQVKENMEPRVELEHHHHHH”, the “soluble on expression in E. coli” value is “soluble”.

“MSNIKKYIIDYDWKASIEIEIDHDVMTEEKLHQINNFWSDSEYRLNKHGSVLNAVLIMLAQHALLIAISSDLNAYGVVCEFDWNDGNGQEGWPSMDGSEGIRITDIDTSGIFDSDDMTIKAA”: the “soluble on expression in E. coli” value was “soluble”.

As to “MSNNNTSIHDFDFSFICNYFKLLKRQGPGSPEATRKAVSFINELTDDAKIADIGCGTGGQTLFLADYVKGQITGIDLFPDFIEIFNENAVKANCADRVKGITGSMDNLPFQNEELDLIWSEGAIYNIGFERGMNEWSKYLKKGGFIAVSEASWFTSERPAEIEDFWMDAYPEISVIPTCIDKMERAGYTPTAHFILPENCWTEHYFAPQDEVRETFMKEHAGNKTAMDFMKGQQYERSLYSKYKDYYGYVFYIGQKRLEHHHHHH”, the “soluble on expression in E. coli” value was “soluble”.

For the sequence “MSNRKLSPDKTQPIYAPNNAFLDECVRVEIINILPLKVLRPAVKESTKYHQILASIQDVGLVEPPAVTPAPGTSGQYFLLDGHLRIEVLKDLGELKVDCLVATDDDTYSYNKRTNRLSAVQSNKMIVRAMERGVSAERLGKALGLSPQTIRQRFRLLNGICAEVVALLGDTDCPANVFNLLRQMKPLRQIEAAELMIGNKNLSVLLAKALLAATPPDQLVMIKKPSQDHQVSAESMARLERELAALQMQIKTVEEDYGPDVLHLTVIKGYLTKLLANAAVVRWLARHQPEYLKEFQSIAELTELPWADNGPEDDLQSTTAEG”, the “soluble on expression in E. coli” value is reported as “not soluble”.

For the sequence “MSNTDNSDKNTKPTGYRPPQTDFNTEFGNNLDYPRLGSVSFRRGTLTDNQESLWDANWPILGKDLTDAEDQRIDVAEWFGRCGHKTILEIGSGTGTSTAAMAPLEADTNIIAVELYKPGLAKLLGAVVRGDISNVRMIRGDGVEVLTRMLPEESLDGVRIYFPDPWPKARHHKRRIIQSGVLNLIASRLKPGGVLHVATDHADYAEWITELVNVEPQLEFMGWPWDECPQLTDRQVITKFEGKGLDKDHTITEFLWRRK”, the “soluble on expression in E. coli” value is “not soluble”.

On to “MSPIMARKPQIQAEQLAQKFVEKPEEQKDKQAVQKGQQLEGAKRWVADSELREQPVNSMQQVEHGPKAVILADDACWQTQRRVPAEIQLPQVGKISIPELSEKEIQRTIVAQPASYHKVQWNEFPEEPKYEIGAVPKTKTQDWVPVNNEQNELQRSIYKPARMSAVWPPPQDELVKDGHSPLVVKANEDTAWIQQDQNGVLKQAVWGKTSRINRVWPPPENESTLSDFGPQHMPVVQWPPPEAEAHEREQVEVLQKHIPTKKMERQWPPPPPQYQVVESSGEIETRYNPAEVDQQQQAVNSLRMGHIQA”, for which the “soluble on expression in E. coli” value was “not soluble”.

Consider “MSPTSRPATGASLSAARRSREVADTVGGPVVDVLVVGLGATGAGAALDAAARGLGVVAVDAHDLAFGTSRWSSKLIHGGLRYLASGQLDVAHESAVERGVLMERTAPHLVRAQPFVLPLTPLVSRGQGALAWAGFRAGDTLRLAARTARATLPAPRRLSAVETRHLAPALRSDRLRGGLLSWDGRLADDARLVTALARTAAARGARILTRVRALELTGSGARVRDETTGEEGVIRARAVVNASGVWAGDLVDGIRIRPSRGTHLVLRSDRLGPLPAGLHVPIPGETNRFVLVLPQDDGRVYVGLTDEPVDGDVPDVPEVPETDVGFLLDVLGSVLDVPVHREDVVGAFAGLRPLLDTAPSDRPGAAPRTADVSRRHAVLTSSEGVITVVGGKLTTYRRMAEDAVDAAVAARGLAAGPSPTAALPLVGAAAPHTLAGVRAPRRLVRRYGTEAPAVQALASREPCLAERVLPGHPVTGAELVWALRHEGALDEADLLDRRTRVGLVPEDRAAALGAVRDLVGEVTADPRLEHHHHHH”, for which the “soluble on expression in E. coli” value was “not soluble”.

As to “MSQGYAIELYFDPALENQVLKAWNVFARRQISTYLINNESRPHITLFSTTSSIDSTKLEPIIKSFSSKQEPISLSFSSIGSFSSDDNALFLSPTPSLSLIQLQLQLCEVIKKEGFEIGEEYRVDSWVPFCSVAVDVPKSRISEGFLVLRDLKLLVYGYAMDIGLVEFSPVREVFSFGLGNNLES”, the “soluble on expression in E. coli” value was “soluble”.

For “MSQLYAQEPRLGIPDSMLRYGTVVTMEQGDTVYDIALPQVWVKHKKYKSRQLTPQERQELWRLIRDVKRTLPYAKMIAATLIETYEYMETMPDEKSRQKHLKRMEKEMKQQYMPEMKRLTLRQGKLLIKLIDRQCAQSSYQLLKAFLGGWKAGWWNLFARFYGASLKTRYEPDKNPEDALTERIVLLVEEKRI”, the “soluble on expression in E. coli” value was “not soluble”.

“MSQMSPGQARVVDPILSTHARGYRQSTLIGKKLFPVAPVAQYGGKILTFGKEAFRLYNTKRAPGANTKRIDFGYEGDPYSIVPSALEAKVPRELMRDASQVPGIDLGARSVNTVLRIMALAHEHECAQIALDPAKYNADHKVKLVGSARWTSPDSDPTKDVETAKEAIADSIGMEPNRLMLSRKALSACKYHPKLIERVKYTRAESITIDMLKALWEVEEIVVGTARVATGANDSFGDVWGPDVWLGYVSDNPDPSVEEPSFGYTYQIEGHPLVEVPYWDNNAKSWIYGVSDDNTPALSGMLAGYLIEDAGLPAALEHHHHHH”: the “soluble on expression in E. coli” value is “soluble”.

Consider “MSQNATVNVDIKLGVNKFHVDEGHPHIILTENPDINEFRKLMKACPAGLYKQDDVGNIHFDPAGCLECGTCRVLCGNTILEQWQYPAGTFGIDFRYG”, for which the “soluble on expression in E. coli” value was “not soluble”.

Regarding “MSQSNHPGGKDAGSIPRVLISADRSSSGKTTISMGLMAALVSRGYKVQPFKVALDYIDPSYHTEITGRFCRNLDGYLMDEHGILDVYTHACETGGGADIAIIEGVRGLFEGFESLSDVGSTAQIAKILKCPVVFVINARSITRSAAALIGGYKNFDPDVEIAGVILNNIGGRRHAQKAKEAIEHYTGVPVLGIIPRDPSMQISMRHLGLMPALEGRRRFGDGGFENRLHGIEEIINKGIDVDRFLGIAESAKPLTALENSIFSPAVNENSQKPKIGVALDEAFNFYYRDNIDLLEIAGAEIVYFSPVNDPGLPEVDGLYIGGGYPELFAAELEANETMRKSIKEASAAGMPIYAECGGLMYLTEKISTGVPGKGTYHDASMPESTYSMVGALPGHTIMGQTRVVSYNIGTLARDCPIGKKGNSFKGHEFHHSEILEIPDDAEFAIALTRGTGIRGDRDGLIVNNTIGSYAHLHGVAYRELAGSLVEAARKFRDSRVSSLEHHHHHH”, the “soluble on expression in E. coli” value is recorded as “soluble”.

As for “MSRARCERCLRPAGHCLCPLIPQLPSRTRVLLLQHPSEVNHALNTARLAALGLNNAELVVGEVFEELPALLDQPGYRACLLFPADDARPLQAYAETDVPLLLVVPDGTWRKARKLLHLNPLLAALPRVTLATGVESRYRLRKAPGPGALSTVEAIVQALQVLEAPASFEPLLRPFEALIEGQIAAMGEDTYQRNHAKSAAALEHHHHHH”, the “soluble on expression in E. coli” value is recorded as “not soluble”.
